US20180118786A1 (ECOLE POLYTECHNIQUE FEDERALE DE LAUSANNE EPFL, published 2018)
Starred links: 1 amine or outer side, 2 acyl side, 3 side chain; linkers in the order of their positions; H or OH if unused. Positions of bridges follow the written chain, without caps; N, C: chain ends. No end group written: not given here. TATA = O=C(CC[*:1])N1CN(C(=O)CC[*:2])CN(C(=O)CC[*:3])C1

B1: peptide 7 (peptide 2, Phe3 to valine) (peptide)
peptide: RCVRLPCRQLRCRW-NH2
modifications: linker 2-7-12 via TATA; N-terminus assumed
SMILES: CC(C)C[C@@H]1NC(=O)[C@H](CCC(N)=O)NC(=O)[C@H](CCCNC(=N)N)NC(=O)[C@@H]2CSCCC(=O)N3CN(CN(C3)C(=O)CCSC[C@H](NC(=O)[C@@H](N)CCCNC(=N)N)C(=O)N[C@@H](C(C)C)C(=O)N[C@@H](CCCNC(=N)N)C(=O)N[C@@H](CC(C)C)C(=O)N3CCC[C@H]3C(=O)N2)C(=O)CCSC[C@@H](C(=O)N[C@@H](CCCNC(=N)N)C(=O)N[C@@H](Cc2c[nH]c3ccccc23)C(N)=O)NC(=O)[C@H](CCCNC(=N)N)NC1=O
notes: Number tied to residue by the order of the list
B2: peptide 12 (peptide 2, Leu5 to isoleucine) (peptide)
peptide: RCFRIPCRQLRCRW-NH2
modifications: linker 2-7-12 via TATA; N-terminus assumed
SMILES: CC[C@H](C)[C@@H]1NC(=O)[C@H](CCCNC(=N)N)NC(=O)[C@H](Cc2ccccc2)NC(=O)[C@@H](NC(=O)[C@@H](N)CCCNC(=N)N)CSCCC(=O)N2CN3CN(C2)C(=O)CCSC[C@H](NC(=O)[C@@H]2CCCN2C1=O)C(=O)N[C@@H](CCCNC(=N)N)C(=O)N[C@@H](CCC(N)=O)C(=O)N[C@@H](CC(C)C)C(=O)N[C@@H](CCCNC(=N)N)C(=O)N[C@H](C(=O)N[C@@H](CCCNC(=N)N)C(=O)N[C@@H](Cc1c[nH]c2ccccc12)C(N)=O)CSCCC3=O
B3: peptide 11 (peptide 2, Leu5 to valine) (peptide)
peptide: RCFRVPCRQLRCRW-NH2
modifications: linker 2-7-12 via TATA; N-terminus assumed
SMILES: CC(C)C[C@@H]1NC(=O)[C@H](CCC(N)=O)NC(=O)[C@H](CCCNC(=N)N)NC(=O)[C@@H]2CSCCC(=O)N3CN(CN(C3)C(=O)CCSC[C@H](NC(=O)[C@@H](N)CCCNC(=N)N)C(=O)N[C@@H](Cc3ccccc3)C(=O)N[C@@H](CCCNC(=N)N)C(=O)N[C@@H](C(C)C)C(=O)N3CCC[C@H]3C(=O)N2)C(=O)CCSC[C@@H](C(=O)N[C@@H](CCCNC(=N)N)C(=O)N[C@@H](Cc2c[nH]c3ccccc23)C(N)=O)NC(=O)[C@H](CCCNC(=N)N)NC1=O
B4: peptide 21 (peptide 2, Gln9 to aspartate) (peptide)
peptide: RCFRLPCRDLRCRW-NH2
modifications: linker 2-7-12 via TATA; N-terminus assumed
SMILES: CC(C)C[C@@H]1NC(=O)[C@H](CC(=O)O)NC(=O)[C@H](CCCNC(=N)N)NC(=O)[C@@H]2CSCCC(=O)N3CN(CN(C3)C(=O)CCSC[C@H](NC(=O)[C@@H](N)CCCNC(=N)N)C(=O)N[C@@H](Cc3ccccc3)C(=O)N[C@@H](CCCNC(=N)N)C(=O)N[C@@H](CC(C)C)C(=O)N3CCC[C@H]3C(=O)N2)C(=O)CCSC[C@@H](C(=O)N[C@@H](CCCNC(=N)N)C(=O)N[C@@H](Cc2c[nH]c3ccccc23)C(N)=O)NC(=O)[C@H](CCCNC(=N)N)NC1=O
B5: peptide 8 (peptide 2, Phe3 to isoleucine) (peptide)
peptide: RCIRLPCRQLRCRW-NH2
modifications: linker 2-7-12 via TATA; N-terminus assumed
SMILES: CC[C@H](C)[C@@H]1NC(=O)[C@@H](NC(=O)[C@@H](N)CCCNC(=N)N)CSCCC(=O)N2CN3CN(C2)C(=O)CCSC[C@H](NC(=O)[C@@H]2CCCN2C(=O)[C@H](CC(C)C)NC(=O)[C@H](CCCNC(=N)N)NC1=O)C(=O)N[C@@H](CCCNC(=N)N)C(=O)N[C@@H](CCC(N)=O)C(=O)N[C@@H](CC(C)C)C(=O)N[C@@H](CCCNC(=N)N)C(=O)N[C@H](C(=O)N[C@@H](CCCNC(=N)N)C(=O)N[C@@H](Cc1c[nH]c2ccccc12)C(N)=O)CSCCC3=O
notes: as for B1
B6: peptide 64 (FXII618, Arg1 to isoleucine) (peptide)
peptide: ICFRLPCRQLRCR-NH2
modifications: linker 2-7-12 via TATA; N-terminus assumed
SMILES: CC[C@H](C)[C@H](N)C(=O)N[C@H]1CSCCC(=O)N2CN3CN(C2)C(=O)CCSC[C@H](NC(=O)[C@@H]2CCCN2C(=O)[C@H](CC(C)C)NC(=O)[C@H](CCCNC(=N)N)NC(=O)[C@H](Cc2ccccc2)NC1=O)C(=O)N[C@@H](CCCNC(=N)N)C(=O)N[C@@H](CCC(N)=O)C(=O)N[C@@H](CC(C)C)C(=O)N[C@@H](CCCNC(=N)N)C(=O)N[C@H](C(=O)N[C@@H](CCCNC(=N)N)C(N)=O)CSCCC3=O
notes: as for B1
B7: peptide 85 (FXII618, Gln9 to glycine) (peptide)
peptide: RCFRLPCRGLRCR-NH2
modifications: linker 2-7-12 via TATA; N-terminus assumed
SMILES: CC(C)C[C@@H]1NC(=O)CNC(=O)[C@H](CCCNC(=N)N)NC(=O)[C@@H]2CSCCC(=O)N3CN(CN(C3)C(=O)CCSC[C@H](NC(=O)[C@@H](N)CCCNC(=N)N)C(=O)N[C@@H](Cc3ccccc3)C(=O)N[C@@H](CCCNC(=N)N)C(=O)N[C@@H](CC(C)C)C(=O)N3CCC[C@H]3C(=O)N2)C(=O)CCSC[C@@H](C(=O)N[C@@H](CCCNC(=N)N)C(N)=O)NC(=O)[C@H](CCCNC(=N)N)NC1=O
B8: peptide 87 (FXII618, Leu10 to glycine) (peptide)
peptide: RCFRLPCRQGRCR-NH2
modifications: linker 2-7-12 via TATA; N-terminus assumed
SMILES: CC(C)C[C@@H]1NC(=O)[C@H](CCCNC(=N)N)NC(=O)[C@H](Cc2ccccc2)NC(=O)[C@@H](NC(=O)[C@@H](N)CCCNC(=N)N)CSCCC(=O)N2CN3CN(C2)C(=O)CCSC[C@H](NC(=O)[C@@H]2CCCN2C1=O)C(=O)N[C@@H](CCCNC(=N)N)C(=O)N[C@@H](CCC(N)=O)C(=O)NCC(=O)N[C@@H](CCCNC(=N)N)C(=O)N[C@H](C(=O)N[C@@H](CCCNC(=N)N)C(N)=O)CSCCC3=O
B9: peptide 66 (FXII618, Arg1 to alanine) (peptide)
peptide: ACFRLPCRQLRCR-NH2
modifications: linker 2-7-12 via TATA; N-terminus assumed
SMILES: CC(C)C[C@@H]1NC(=O)[C@H](CCC(N)=O)NC(=O)[C@H](CCCNC(=N)N)NC(=O)[C@@H]2CSCCC(=O)N3CN(CN(C3)C(=O)CCSC[C@@H](C(=O)N[C@@H](CCCNC(=N)N)C(N)=O)NC(=O)[C@H](CCCNC(=N)N)NC1=O)C(=O)CCSC[C@H](NC(=O)[C@H](C)N)C(=O)N[C@@H](Cc1ccccc1)C(=O)N[C@@H](CCCNC(=N)N)C(=O)N[C@@H](CC(C)C)C(=O)N1CCC[C@H]1C(=O)N2
notes: as for B1
B10: peptide 65 (FXII618, Arg1 to valine) (peptide)
peptide: VCFRLPCRQLRCR-NH2
modifications: linker 2-7-12 via TATA; N-terminus assumed
SMILES: CC(C)C[C@@H]1NC(=O)[C@H](CCC(N)=O)NC(=O)[C@H](CCCNC(=N)N)NC(=O)[C@@H]2CSCCC(=O)N3CN(CN(C3)C(=O)CCSC[C@H](NC(=O)[C@@H](N)C(C)C)C(=O)N[C@@H](Cc3ccccc3)C(=O)N[C@@H](CCCNC(=N)N)C(=O)N[C@@H](CC(C)C)C(=O)N3CCC[C@H]3C(=O)N2)C(=O)CCSC[C@@H](C(=O)N[C@@H](CCCNC(=N)N)C(N)=O)NC(=O)[C@H](CCCNC(=N)N)NC1=O
notes: as for B1

Target: T1, human β-FXIIa (HFXIIAB; Molecular Innovations) (human, UniProt P00748 354-362; P00748 373-615, limits assumed)
T1 construct: domain: catalytic domain; Bought; also called human b-FXIIa; human FXIIa
T1 sequence (P00748 373-615 limits assumed, one chain of several): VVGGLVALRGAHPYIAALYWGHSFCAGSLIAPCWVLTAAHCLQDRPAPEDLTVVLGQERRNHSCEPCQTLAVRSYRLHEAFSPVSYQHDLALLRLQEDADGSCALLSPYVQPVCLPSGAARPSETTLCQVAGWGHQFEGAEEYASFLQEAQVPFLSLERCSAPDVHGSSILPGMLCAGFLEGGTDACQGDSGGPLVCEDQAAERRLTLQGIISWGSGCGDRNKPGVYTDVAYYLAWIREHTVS
Experiment: protease inhibition assay

Binder	fold reduction of activity vs peptide 2 [fold]	fold reduction of affinity vs peptide 1 [fold]	further results
B1	> 10		
B2			fold reduction of affinity vs peptide 2: > 50 fold
B3			fold reduction of affinity vs peptide 2: > 50 fold
B4	54		
B5	> 10		
B6		> 5	
B7			fold reduction of affinity vs FXII618: ~200 fold
B8			fold reduction of affinity vs FXII618: ~200 fold
B9		> 5	
B10		> 5	
